Columns and labels:
[1] = tested on: N-2-[(7-methoxy-2-oxo-2H-chromen-4-yl)acetyl]-D-arginyl-L-prolyl-L-leucylglycyl-6-phenoxy-L-norleucyl-3-[(2,4-dinitrophenyl)amino]-L-alanyl-L-alanyl-D-arginyl-D-alpha-glutamyl-D-argininamide
[2] = tested on: N-2-[(7-methoxy-2-oxo-2H-chromen-4-yl)acetyl]-L-arginyl-L-prolyl-L-leucylglycyl-6-(benzyloxy)-L-norleucyl-3-[(2,4-dinitrophenyl)amino]-L-alanyl-L-alanyl-L-arginyl-L-alpha-glutamyl-L-argininamide
[3] = tested on: N-2-[(7-methoxy-2-oxo-2H-chromen-4-yl)acetyl]-L-arginyl-L-prolyl-L-leucylglycyl-L-leucyl-3-[(2,4-dinitrophenyl)amino]-L-alanyl-L-alanyl-D-arginyl-D-alpha-glutamyl-D-argininamide
[4] = tested on: N-2-[(7-methoxy-2-oxo-2H-chromen-4-yl)acetyl]-L-arginyl-L-prolyl-L-leucylglycyl-L-leucyl-3-[(2,4-dinitrophenyl)amino]-L-alanyl-L-alanyl-L-arginyl-L-alpha-glutamyl-L-argininamide
[5] = tested on: N-2-[(7-methoxy-2-oxo-2H-chromen-4-yl)acetyl]-D-arginyl-L-prolyl-L-leucylglycyl-L-leucyl-3-[(2,4-dinitrophenyl)amino]-L-alanyl-L-alanyl-D-arginyl-D-alpha-glutamyl-D-argininamide
[6] = tested on: N-2-[(7-methoxy-2-oxo-2H-chromen-4-yl)acetyl]-D-arginyl-L-prolyl-L-leucylglycyl-6-(benzyloxy)-L-norleucyl-3-[(2,4-dinitrophenyl)amino]-L-alanyl-L-alanyl-D-arginyl-D-alpha-glutamyl-D-argininamide

Chain of MMP-3 (chain, as listed by the source): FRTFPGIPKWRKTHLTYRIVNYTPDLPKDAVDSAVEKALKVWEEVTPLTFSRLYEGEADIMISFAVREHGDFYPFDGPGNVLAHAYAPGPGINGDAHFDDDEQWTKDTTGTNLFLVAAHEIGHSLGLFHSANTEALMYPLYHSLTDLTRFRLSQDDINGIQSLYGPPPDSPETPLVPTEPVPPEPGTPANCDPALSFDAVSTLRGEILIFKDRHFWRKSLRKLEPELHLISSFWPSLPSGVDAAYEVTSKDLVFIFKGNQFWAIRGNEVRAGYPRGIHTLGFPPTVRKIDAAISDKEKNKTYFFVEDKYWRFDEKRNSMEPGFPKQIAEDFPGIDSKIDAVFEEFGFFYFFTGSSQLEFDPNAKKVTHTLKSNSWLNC
Chain of MMP-9 (chain, as listed by the source): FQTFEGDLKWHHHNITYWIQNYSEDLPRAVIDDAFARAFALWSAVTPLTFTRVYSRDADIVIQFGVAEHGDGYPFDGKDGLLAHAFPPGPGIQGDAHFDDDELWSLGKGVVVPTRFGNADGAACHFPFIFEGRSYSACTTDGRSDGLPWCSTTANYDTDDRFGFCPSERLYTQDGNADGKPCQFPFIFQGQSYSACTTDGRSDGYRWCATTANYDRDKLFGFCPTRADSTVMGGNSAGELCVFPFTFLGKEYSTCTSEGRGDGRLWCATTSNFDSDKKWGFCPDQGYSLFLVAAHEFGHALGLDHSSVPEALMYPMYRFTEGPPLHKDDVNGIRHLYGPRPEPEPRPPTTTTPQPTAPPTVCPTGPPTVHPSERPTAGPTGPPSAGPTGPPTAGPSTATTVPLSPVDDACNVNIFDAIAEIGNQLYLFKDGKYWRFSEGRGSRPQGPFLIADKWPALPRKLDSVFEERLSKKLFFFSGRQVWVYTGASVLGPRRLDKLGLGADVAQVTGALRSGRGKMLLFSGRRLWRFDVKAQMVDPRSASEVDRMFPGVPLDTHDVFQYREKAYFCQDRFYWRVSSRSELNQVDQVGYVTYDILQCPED
Chain of MMP-8 (chain, as listed by the source): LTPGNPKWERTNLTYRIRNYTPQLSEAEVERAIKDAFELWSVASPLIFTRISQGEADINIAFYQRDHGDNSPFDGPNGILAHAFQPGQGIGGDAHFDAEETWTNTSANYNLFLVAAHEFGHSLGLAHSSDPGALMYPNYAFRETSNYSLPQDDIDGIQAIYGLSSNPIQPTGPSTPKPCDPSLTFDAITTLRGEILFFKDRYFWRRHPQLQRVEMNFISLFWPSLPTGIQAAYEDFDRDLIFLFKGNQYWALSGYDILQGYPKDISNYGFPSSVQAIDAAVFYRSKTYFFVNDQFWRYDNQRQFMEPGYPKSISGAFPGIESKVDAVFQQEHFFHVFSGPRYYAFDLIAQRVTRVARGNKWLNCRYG

Substance | Km [1] [µM] | kcat/Km [1] [M⁻¹ s⁻¹] | Km [2] [µM] | kcat/Km [2] [M⁻¹ s⁻¹] | Km [3] [µM] | kcat/Km [3] [M⁻¹ s⁻¹] | Km [4] [µM] | kcat/Km [4] [M⁻¹ s⁻¹] | Km [5] [µM] | kcat/Km [5] [M⁻¹ s⁻¹] | Km [6] [µM] | kcat/Km [6] [M⁻¹ s⁻¹]
MMP-13 | 1.2 | 2.93e+06 | 0.9 | 4.24e+06 | 4.7 | 4.08e+06 | 3.9 | 3.92e+06 | 9 | 296000 | 1.5 | 1.58e+06
MMP-3 | – | 0 | 85.9 | 4800 | 59.5 | 800 | 38.7 | 9800 | 14 | 6300 | 28.9 | 1600
MMP-8 | 4.4 | 522000 | 9.1 | 179000 | 13.3 | 456000 | 20.1 | 381000 | 16.7 | 139000 | 3.3 | 146000
MMP-9 | 1.4 | 1.91e+06 | 2.3 | 1.47e+06 | 8.2 | 1.33e+06 | 6.2 | 1.29e+06 | 6.4 | 418000 | 3.3 | 319000
